The numbers were not newly measured in patent US20040253306A1, “Sustained release formulations for nifedipine dextromethorphan, and danazol” (priority 2001, published 2004), which cites them from elsewhere.

For this data set the following is noted: oral; free vs liposomes having ceramides.

Take superoxide dismutase: the bioavailability was 14%.
